Source: patent US20100143371A1 (published 2010)

Key:
[1] = target: T1, GST-Etk kinase domain (human, UniProt P51813 417-675); experiment: ELISA, purified domain antibody on immobilised GST-Etk, anti-Myc-HRP detection
T1 construct: Soluble fusion protein expressed in SF21 cells by baculovirus, purified on glutathione beads; also called recombinant Etk; not shown: Glutathione-S-transferase (GST) fusion partner of the pBac vector (Pharmingen)
Method: Quantitative Etk binding assay. Various concentrations of purified domain antibodies were added into a Maxi-sorp 96 well microtiter plate coated with 100 μl/well of 1 μg/ml GST-Etk and incubated for 1 h at RT. The plate was washed 3 times with PBST and then incubated with 100 μl/well of anti-Myc-HRP conjugate (1:5000 dilution) for 1 h at RT. The plate was washed 5 times, TMB peroxidase substrate was added and the absorbance at 450 nm was measured.
The antibody concentration required for 50% of maximum binding to Etk was 5 nM and 8 nM for L9 and L11, respectively, and approximately 20 nM for L5, L7, L12 and L15. […] Consistent with the binding data, all 6 domain antibodies blocked Etk enzymatic activity dose-dependently, as indicated by the reduction in the ability of recombinant Etk to phosphorylate the substrate, polyEY, in the presence of the domain antibodies (FIG. 2C).

[2] = target: T1, GST-Etk kinase domain; experiment: cell-based or functional assay
[3] = target: T2, endogenous Etk of NSR cells (mouse, UniProt P97504 1-651); experiment: cell-based or functional assay
T2 sequence (looked up): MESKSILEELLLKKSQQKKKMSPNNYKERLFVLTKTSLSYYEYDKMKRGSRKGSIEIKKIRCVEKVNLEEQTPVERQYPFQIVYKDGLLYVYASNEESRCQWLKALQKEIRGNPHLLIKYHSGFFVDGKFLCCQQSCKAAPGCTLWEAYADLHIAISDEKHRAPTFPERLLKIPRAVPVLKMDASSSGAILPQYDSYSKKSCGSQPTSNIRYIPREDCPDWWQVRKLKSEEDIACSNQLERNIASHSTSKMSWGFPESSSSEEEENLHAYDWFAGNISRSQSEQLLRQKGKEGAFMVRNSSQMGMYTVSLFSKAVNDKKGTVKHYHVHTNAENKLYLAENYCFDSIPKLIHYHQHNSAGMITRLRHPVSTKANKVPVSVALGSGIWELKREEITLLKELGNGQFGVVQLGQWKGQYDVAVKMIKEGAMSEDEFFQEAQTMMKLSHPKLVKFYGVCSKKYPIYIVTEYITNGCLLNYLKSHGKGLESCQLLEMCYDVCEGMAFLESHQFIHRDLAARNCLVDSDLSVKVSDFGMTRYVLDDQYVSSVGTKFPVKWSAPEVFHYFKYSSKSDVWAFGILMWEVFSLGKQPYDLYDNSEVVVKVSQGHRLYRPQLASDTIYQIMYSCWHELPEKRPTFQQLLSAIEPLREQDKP

[4] = target: T2, endogenous Etk of NSR cells; experiment: co-immunoprecipitation from NSR cell lysate (protein L or anti-Etk), western blot
Method: Western immunoblotting and immunoprecipitation. Cells from a 150 mm dish were harvested in 1 ml lysis buffer containing 25 mM Tris-HCl pH 7.4, 2 mM sodium orthovanadate, 0.5 mM EDTA, 10 mM NaF, 10 mM sodium pyrophosphate, 25 mM NaCl and 1% Tx-100 supplemented with 1:1000 dilution of protease inhibitor cocktail. Cells were frozen and thawed twice, centrifuged and supernatant was collected. Samples of 50 μg protein extract were resolved by SDS-PAGE under reducing conditions, and transferred onto nitrocellulose membrane for western immunoblotting with the indicated antibodies. For immunoprecipitation, 0.5 mg of protein extracts were incubated with either protein L beads or anti-Etk antibodies coupled to protein A bead overnight at 4° C. The immunocomplex was washed 4 times with PBST and twice with 50 mM Hepes, pH 7.5, electrophored on an SDS-polyacrylamide gel under reducing conditions, and transferred onto nitrocellulose membrane for western immunoblotting with the indicated antibodies. In addition, the immunocomplex was also used as the source for enzyme (Etk kinase) in the in vitro kinase activity and autophosphorylation assays described below.
This was further confirmed when the cell lysate was immunoprecipitated with an anti-Etk antibody followed by blotting with an anti-c-Myc antibodies (FIG. 3C).

T1 sequence (P51813 417-675): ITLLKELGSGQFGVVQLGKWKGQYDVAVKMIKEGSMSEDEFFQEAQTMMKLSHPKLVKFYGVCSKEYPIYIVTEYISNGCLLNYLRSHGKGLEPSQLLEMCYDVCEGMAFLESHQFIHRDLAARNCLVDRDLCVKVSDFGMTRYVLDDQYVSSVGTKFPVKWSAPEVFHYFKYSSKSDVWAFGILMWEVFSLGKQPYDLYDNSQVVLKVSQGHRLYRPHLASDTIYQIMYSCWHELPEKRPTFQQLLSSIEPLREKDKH

B1: L5 soluble single domain antibody (antibody, V domains shown)
VL: DIQMTQSPSSLSASVGDRVTITCRASQGIKMKLNWYQQKPGKAPKLLIYNTSHLQSGVPSRFSGSGSGTDFTLTISSLQPEDFATYYCQQHKTRPDTFGQGTKVEIKR
notes: Single human kappa light chain variable domain (domain antibody), expressed from pDOM5 in E. coli BL21, purified on protein L, about 15 kDa; the tie to L5 rests on the order of the list and the numbering (CDRs 4, 6, 8 follow 2); not shown: c-Myc tag (detected with anti-Myc-HRP)
In the case of B1, the EC50 [1] is reported as roughly 20 nM and the “domain antibody concentration required to achieve 50% inhibition of Etk kinase activity (polyEY substrate, ELISA-based in vitro kinase assay)” value [2] is reported as roughly 20 nM.

B2: L9 soluble single domain antibody (antibody, V domains shown)
VL: DIQMTQSPSSLSASVGDRVTITCRASQAIKNKLGWYQQKPGKAPKLLIYKASYLQSGVPSRFSGSGSGTDFTLTISSLQPEDFATYYCQQMKSRPNTFGQGTKVEIKR
notes: Single human kappa light chain variable domain, from pDOM5 in E. coli BL21, protein L purified; not shown: c-Myc tag (detected with anti-Myc-HRP)
With B2 the EC50 [1] was 5 nM and the “domain antibody concentration required to achieve 50% inhibition of Etk kinase activity (polyEY substrate, ELISA-based in vitro kinase assay)” value [2] was roughly 20 nM.

B3: L15 soluble single domain antibody (antibody, V domains shown)
VL: DIQMTQSPSSLSASVGDRVTITCRASQNIKTKLNWYQQKPGKAPKLLIYRVSTLQSGVPSRFSGSGSGTDFTLTISSLQPEDFATYYCQQTKKRPFTFGQGTKVEIER
notes: as for B2
Work on B3 yielded an EC50 [1] of roughly 20 nM.

B4: K7 intrabody (L7 expressed from pcDNA3.1-L7 in NSR cells) (antibody, V domains shown, not shown: small tags and cut ends)
VL: DIQMTQSPSSLSASVGDRVTITCRASQRIFTRLEWYQQKPGKAPMLLIYNVSHLQSGVPSRFSGSGSGTDFTLTISSLQPEDFATYYCQQTEIIPITFGQGTKVEIKQ
For B4, the “in vitro autophosphorylation of immunoprecipitated Etk, percent of the wild-type enzyme (from NSR cells) activity retained” value [3] was roughly 37% and the “in vitro kinase assay of Etk/intrabody immunocomplexes on polyEY, percent of activity of Etk derived from NSR cells” value [3] was roughly 25%.

B5: K11 intrabody (L11 expressed from pcDNA3.1-L11 in NSR cells) (antibody, V domains shown, not shown: small tags and cut ends)
VL: DIQMTQSPSSLSASVGDRVTITCRASQWIFTELAWYQQKPGKAPKLLIYNASYLQSGVPSRFSGSGSGTDFTLTISSLQPEDFATYYCQQTFTPPITFGQGTKVEIKR
B5 was tested, and the “in vitro autophosphorylation of immunoprecipitated Etk, percent of the wild-type enzyme (from NSR cells) activity retained” value [3] was roughly 30% and the “in vitro kinase assay of Etk/intrabody immunocomplexes on polyEY, percent of activity of Etk derived from NSR cells” value [3] was roughly 25%.

B6: K5 intrabody (L5 expressed from pcDNA3.1-L5 in NSR cells) (antibody, V domains shown, not shown: small tags and cut ends)
VL: DIQMTQSPSSLSASVGDRVTITCRASQGIKMKLNWYQQKPGKAPKLLIYNTSHLQSGVPSRFSGSGSGTDFTLTISSLQPEDFATYYCQQHKTRPDTFGQGTKVEIKR
For B6, the “in vitro autophosphorylation of immunoprecipitated Etk, percent of the wild-type enzyme (from NSR cells) activity retained” value [3] was roughly 49% and the “in vitro kinase assay of Etk/intrabody immunocomplexes on polyEY, percent of activity of Etk derived from NSR cells” value [3] was roughly 25%.

B7: K9 intrabody (L9 expressed from pcDNA3.1-L9 in NSR cells) (antibody, V domains shown, not shown: small tags and cut ends)
VL: DIQMTQSPSSLSASVGDRVTITCRASQAIKNKLGWYQQKPGKAPKLLIYKASYLQSGVPSRFSGSGSGTDFTLTISSLQPEDFATYYCQQMKSRPNTFGQGTKVEIKR
In the case of B7, the “in vitro autophosphorylation of immunoprecipitated Etk, percent of the wild-type enzyme (from NSR cells) activity retained” value [3] is reported as roughly 38% and the “in vitro kinase assay of Etk/intrabody immunocomplexes on polyEY, percent of activity of Etk derived from NSR cells” value [3] is reported as roughly 25%.

B8: K15 intrabody (L15 expressed from pcDNA3.1-L15 in NSR cells) (antibody, V domains shown)
VL: DIQMTQSPSSLSASVGDRVTITCRASQNIKTKLNWYQQKPGKAPKLLIYRVSTLQSGVPSRFSGSGSGTDFTLTISSLQPEDFATYYCQQTKKRPFTFGQGTKVEIER
notes: band of 12 kDa; not shown: c-Myc tag (detected with anti-c-Myc antibody)
B8: no binding [4].

B9: L11 soluble single domain antibody (antibody, V domains shown)
VL: DIQMTQSPSSLSASVGDRVTITCRASQWIFTELAWYQQKPGKAPKLLIYNASYLQSGVPSRFSGSGSGTDFTLTISSLQPEDFATYYCQQTFTPPITFGQGTKVEIKR
notes: Tie to L11 rests on list order and numbering; not shown: c-Myc tag (detected with anti-Myc-HRP)
In the case of B9, the EC50 [1] is reported as 8 nM and the “domain antibody concentration required to achieve 50% inhibition of Etk kinase activity (polyEY substrate, ELISA-based in vitro kinase assay)” value [2] is reported as roughly 40 nM.

B10: L7 soluble single domain antibody (antibody, V domains shown)
VL: DIQMTQSPSSLSASVGDRVTITCRASQRIFTRLEWYQQKPGKAPMLLIYNVSHLQSGVPSRFSGSGSGTDFTLTISSLQPEDFATYYCQQTEIIPITFGQGTKVEIKQ
notes: as for B2
In the case of B10, the EC50 [1] is reported as roughly 20 nM and the “domain antibody concentration required to achieve 50% inhibition of Etk kinase activity (polyEY substrate, ELISA-based in vitro kinase assay)” value [2] is reported as roughly 20 nM.

B11: L12 soluble single domain antibody (antibody, V domains shown)
VL: DIQMTQSPSSLSASVGDRVTITCRASQWIFDRLHWYQQKPGKAPTLLIYNSSTLQSGVPSRFSGSGSGTDFTLTISSLQPEDFATYYCQQTKSRPSTFGQGTKVEIKR
notes: as for B2
For B11, the EC50 [1] was roughly 20 nM and the “domain antibody concentration required to achieve 50% inhibition of Etk kinase activity (polyEY substrate, ELISA-based in vitro kinase assay)” value [2] was roughly 20 nM.
